Assay results published in patent US6849458 (dated 2005).

Experiments:
[1] = biological target: human α-thrombin (human), P00734; experiment: microplate thermal shift assay; 50 µM Hirugen added to thrombin with 50 µM 3dp-4660 present, shift against TH/3dp-4660
[2] = biological target: human α-thrombin (human), P00734; experiment: microplate thermal shift assay; Kd at Tm of Hirugen for thrombin with 50 µM 3dp-4660 present
[3] = biological target: human α-thrombin (human), P00734; experiment: microplate thermal shift assay, 1,8-ANS fluorescence, 50 µM ligand, single ligand
[4] = biological target: human α-thrombin (human), P00734; experiment: microplate thermal shift assay; Kd at Tm of Hirugen for thrombin with 200 µM heparin 5000 present
[5] = biological target: human α-thrombin (human), P00734; experiment: microplate thermal shift assay; Kd at 298 K of Hirugen for thrombin with 200 µM heparin 5000 present
[6] = biological target: human α-thrombin (human), P00734; experiment: microplate thermal shift assay; Kd at 298 K of Hirugen for thrombin with 50 µM 3dp-4660 present
[7] = biological target: human α-thrombin (human), P00734; experiment: microplate thermal shift assay; 50 µM Hirugen added to thrombin with 200 µM heparin 5000 present, shift against TH/heparin 5000
[8] = biological target: T1, acidic fibroblast growth factor (aFGF) (UniProt P05230 16-155, limits assumed); experiment: microplate thermal shift assay, turbidity signal; Kd at 298 K estimated with equation (3)
[9] = biological target: T1, acidic fibroblast growth factor (aFGF); experiment: microplate thermal shift assay, turbidity signal, 50 µM ligand
[10] = biological target: T1, acidic fibroblast growth factor (aFGF); experiment: microplate thermal shift assay, turbidity signal; Kd at Tm (322.15 K) calculated with equation (1)

T1 sequence (P05230 16-155 limits assumed): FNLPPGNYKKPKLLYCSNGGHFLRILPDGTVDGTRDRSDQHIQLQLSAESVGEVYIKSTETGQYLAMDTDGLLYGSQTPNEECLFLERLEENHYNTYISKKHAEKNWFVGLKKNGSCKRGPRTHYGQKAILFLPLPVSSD

Binder | ΔTm [1] [° K] | Kd [2] [µM] | ΔTm [3] [° K] | Kd [4] [µM] | Kd [5] [µM] | Kd [6] [µM] | ΔTm [7] [° K] | Kd [8] [µM] | ΔTm [9] [° K] | Kd [10] [µM]
DGDFEEIPEEYL (modifications not checked) [Hirugen (hirudin 53-64), P01050 53-64] | 4.6 | 0.731 | 5.8 | 4.25 | 0.478 | 0.054 | 2.6 |  |  | 
EEEEEEEE |  |  |  |  |  |  |  | 3.04 | 5 | 10.1
EEEEE |  |  |  |  |  |  |  |  | 0 | 
